T1: human IL-23 (human, UniProt P29460 23-328; Q9NPF7 20-189)
T1 construct: Recombinant (Ebioscience); HIS-tagged in flow cytometry, biotinylated in some assays; also called hIL-23; rhIL-23
T1 sequence 1: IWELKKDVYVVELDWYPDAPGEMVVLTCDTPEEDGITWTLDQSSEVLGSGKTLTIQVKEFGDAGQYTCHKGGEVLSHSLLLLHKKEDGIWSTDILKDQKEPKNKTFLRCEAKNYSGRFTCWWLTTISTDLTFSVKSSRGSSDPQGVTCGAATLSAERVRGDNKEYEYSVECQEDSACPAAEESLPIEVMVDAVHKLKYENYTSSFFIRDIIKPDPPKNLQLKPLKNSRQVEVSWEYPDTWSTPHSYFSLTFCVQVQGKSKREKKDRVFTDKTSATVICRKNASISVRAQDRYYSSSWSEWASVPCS
T1 sequence 2: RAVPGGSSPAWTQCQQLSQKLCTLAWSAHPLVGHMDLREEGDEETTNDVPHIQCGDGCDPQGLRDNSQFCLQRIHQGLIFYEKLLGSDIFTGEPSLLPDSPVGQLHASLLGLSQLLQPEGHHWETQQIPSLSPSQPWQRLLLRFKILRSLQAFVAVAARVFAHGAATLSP

T2: human IL-12 (human, UniProt P29460 23-328; P29459 23-219)
T2 construct: Recombinant (Peprotech); FLAG-tagged IL-12 in the flow cytometry assays, biotinylated in the IL-12Rβ2 assay; also called hIL-12
T2 sequence 1: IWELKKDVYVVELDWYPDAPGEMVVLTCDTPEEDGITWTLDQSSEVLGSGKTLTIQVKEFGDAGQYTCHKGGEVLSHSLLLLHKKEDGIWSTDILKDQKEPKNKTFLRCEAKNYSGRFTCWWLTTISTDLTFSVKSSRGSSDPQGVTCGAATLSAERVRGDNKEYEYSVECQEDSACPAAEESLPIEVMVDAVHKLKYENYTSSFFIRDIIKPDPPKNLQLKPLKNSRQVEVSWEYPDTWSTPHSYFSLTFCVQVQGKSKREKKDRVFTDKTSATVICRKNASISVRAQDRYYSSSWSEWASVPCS
T2 sequence 2: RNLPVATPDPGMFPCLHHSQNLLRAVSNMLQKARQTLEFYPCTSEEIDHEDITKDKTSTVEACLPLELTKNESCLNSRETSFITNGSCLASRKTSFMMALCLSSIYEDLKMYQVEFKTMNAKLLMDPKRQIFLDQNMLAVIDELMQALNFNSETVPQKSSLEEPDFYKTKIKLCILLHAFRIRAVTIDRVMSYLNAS


Columns and labels:
[1] = target: T1, human IL-23; assay: ELISA, coated IL-23
Summary of the method: (§1)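 Each value is an absorbance measuring binding. Plates (Maxisorp) carried cytokine coated at 1 μg/mL in carbonate buffer pH 9.6 overnight at 4° C, were blocked with 1% BSA in PBS for 1 hour at 25° C, and received antibody titrations for 1 hour at 25° C. Detection used goat anti-human IgG or anti-murine immunoglobulin HRP at 1:2000 for 1 hour, then TMB stopped with 1M HCl, with absorbance taken at 450 nm (reference 620 nm).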

[2] = target: T2, human IL-12; assay: ELISA, coated IL-12
Summary of the method: as §1

[3] = target: T1, human IL-23; assay: SPR screen, crude scFv captured via FLAG
Experimental: Approximately 6500 individual scFvs recovered from the ribosome display reactions were expressed and screened for binding against IL-23 using a high-throughout SPR assay. The variants were ranked according to the kd and the best variants were sequenced at the nucleic acid level.
High-throughput SPR screening was conducted using a BIAcore A100 biosensor (GE Healthcare). Approximately 10 000 RU of the proprietary FLAG-specific capture molecule was immobilized on a CM5 Series S Sensor chip, using standard amine coupling chemistry on Spots 1 & 5 (outer spots) and 3,000RU to Spots 2 & 4 (inner spots) in each of the four flow cells of the BIAcore A100 Biosensor. The running buffer used was HBS-EP+ (BIAcore) and all interactions measured at 25° C. Crude periplasmic preparations of FLAG-tagged scFvs (prepared as described in the previous paragraph), were diluted two-fold in running buffer before capturing at a flow rate of 5u1/min for 60 sec. Approx. 100RU (on outer spots) and 50RU (on inner spots) of tagged scFv was captured. Following a 2 min stabilization period, IL-23 was passed over all spots of all four flow cells simultaneously at a flow rate of 30u1/min for 120 sec and dissociation monitored for 200 sec. Generated sensorgrams were referenced against the unmodified spot 3 of each flow cell, and fitted using a 1:1 Langmuir equation with R1 set to local to account for varying ligand densities to generate the kₐ, kd and KD values.

[4] = target: T1, human IL-23; assay: SPR, single 81 nM analyte, scFv via FLAG

| Binder | binding result [1] | binding result [2] | also measured |
| --- | --- | --- | --- |
| Antibody 116 (antibody, human IgG1, kappa, V domains shown) VH: EVQLVQSGAEVKKPGATVKISCKASGYTFSDYYLHWVRQAPEKGLEWMGWIDPENGDTEYAPKFQGRVTITADTSSDTGYLELSSLRSEDTAVYYCAANKELRYFDVWGQGTLVTVSS VL: DIQMTQSPSSVSASVGDRVTITCRASQSISINLHWYQQKPGKAPKLLIYFASQSISGVPSRFSGSGSGTDFSLTINSLQPEDFARYYCQQSNSFPLTFGGGTKVEIKR | binds | binds |  |
| Antibody 117 (antibody, human IgG1, kappa, V domains shown) VH: EVQLVQSGAEVKKPGATVKISCKASGYTFSDYYLHWVRQAPEKGLEWMGWIDPENGDTEYAPKFQGRVTITADTSTNTGYLELSSLRSEDTAVYYCAANKELRYFDVWGQGTLVTVSS VL: DIQMTQSPSSVSASVGDRVTITCRASQSISINLHWYQQKPGKAPKLLIYFASQSISGVPSRFSGSGSGTDFSLTINSLQPEDFARYYCQQSNSFPLTFGGGTKVEIKR | binds | binds |  |
| Antibody 118 (antibody, human IgG1, kappa, V domains shown) VH: EVQLVQSGAEVKKPGATVKISCKASGYTFSDYYLHWVRQAPEKGLEWMGWIDPENGDTEYAPKFQGRVTITADTSTDTAYLELSSLRSEDTAVYYCAANKELRYFDVWGQGTLVTVSS VL: DIQMTQSPSSVSASVGDRVTITCRASQSISINLHWYQQKPGKAPKLLIYFASQSISGVPSRFSGSGSGTDFSLTINSLQPEDFARYYCQQSNSFPLTFGGGTKVEIKR | binds | binds |  |
| Antibody 119 (antibody, human IgG1, kappa, V domains shown) VH: EVQLVQSGAEVKKPGATVKISCKASGYTFSDYYLHWVRQAPEKGLEWMGWIDPENGDTEYAPKFQGRVTITADTSTDTGYMELSSLRSEDTAVYYCAANKELRYFDVWGQGTLVTVSS VL: DIQMTQSPSSVSASVGDRVTITCRASQSISINLHWYQQKPGKAPKLLIYFASQSISGVPSRFSGSGSGTDFSLTINSLQPEDFARYYCQQSNSFPLTFGGGTKVEIKR | binds | binds |  |
| Antibody 120 (antibody, human IgG1, kappa, V domains shown) VH: EVQLVQSGAEVKKPGATVKISCKASGYTFSDYYLHWVRQAPEKGLEWMGWIDPENGDTEYAPKFQGRVTITADTSTDTGYLQLSSLRSEDTAVYYCAANKELRYFDVWGQGTLVTVSS VL: DIQMTQSPSSVSASVGDRVTITCRASQSISINLHWYQQKPGKAPKLLIYFASQSISGVPSRFSGSGSGTDFSLTINSLQPEDFARYYCQQSNSFPLTFGGGTKVEIKR | binds | binds |  |
| Antibody 121 (antibody, human IgG1, kappa, V domains shown) VH: EVQLVQSGAEVKKPGATVKISCKASGYTFSDYYLHWVRQAPEKGLEWMGWIDPENGDTEYAPKFQGRVTITADTSTDTGYLELRSLRSEDTAVYYCAANKELRYFDVWGQGTLVTVSS VL: DIQMTQSPSSVSASVGDRVTITCRASQSISINLHWYQQKPGKAPKLLIYFASQSISGVPSRFSGSGSGTDFSLTINSLQPEDFARYYCQQSNSFPLTFGGGTKVEIKR | binds | binds |  |
| Antibody 122 (antibody, human IgG1, kappa, V domains shown) VH: EVQLVQSGAEVKKPGATVKISCKASGYTFSDYYLHWVRQAPEKGLEWMGWIDPENGDTEYAPKFQGRVTITADTSTDTGYLELSSLTSEDTAVYYCAANKELRYFDVWGQGTLVTVSS VL: DIQMTQSPSSVSASVGDRVTITCRASQSISINLHWYQQKPGKAPKLLIYFASQSISGVPSRFSGSGSGTDFSLTINSLQPEDFARYYCQQSNSFPLTFGGGTKVEIKR | binds | binds |  |
| Antibody 123 (antibody, human IgG1, kappa, V domains shown) VH: EVQLVQSGAEVKKPGATVKISCKASGYTFSDYYLHWVRQAPEKGLEWMGWIDPENGDTEYAPKFQGRVTITADTSTDTGYLELSSLRSDDTAVYYCAANKELRYFDVWGQGTLVTVSS VL: DIQMTQSPSSVSASVGDRVTITCRASQSISINLHWYQQKPGKAPKLLIYFASQSISGVPSRFSGSGSGTDFSLTINSLQPEDFARYYCQQSNSFPLTFGGGTKVEIKR | binds | binds |  |
| Antibody 124 (antibody, human IgG1, kappa) heavy chain: not shown light chain: DIQMTQSPSSVSASVGDRVTITCRASQSISINLHWYQQKPGKAPKLLIYFASQSISGVPSRFSGSGSGTDFSLTINSLQPEDFARYYCQQSNSFPLTFGGGTKVEIKRTVAAPSVFIFPPSDEQLKSGTASVVCLLNNFYPREAKVQWKVDNALQSGNSQESVTEQDSKDSTYSLSSTLTLSKADYEKHKVYACEVTHQGLSSPVTKSFNRGEC | binds | binds |  |
| scFv AY-B2 (scFv, scFv-80 variant: VH M69V; not shown: proprietary C-terminal FLAG tag) scFv: QVQLVQSGAEVKKPGASVKVSCKASGYTFTDYYLHWVRQAPGQGLEWMGWIDPENGDTEYAPKFQGRVTVTTDTSTSTAYMELRSLRSDDTAVYYCNANKELRYFDVWGQGTMVTVSSGGGGSGGGGSGGGGSEIVMTQSPATLSVSPGERATLSCRASQSISINLHWYQQKPGQAPRLLIYFASQSISGIPARFSGSGSGTEFTLTISSLQSEDFAVYYCQQSNSFPLTFGGGTKVEIKR |  |  | koff [3]: 0.0001 s⁻¹ |
| scFv AY-G7 (scFv, scFv-80 variant: VL Y86H; not shown: proprietary C-terminal FLAG tag) scFv: QVQLVQSGAEVKKPGASVKVSCKASGYTFTDYYLHWVRQAPGQGLEWMGWIDPENGDTEYAPKFQGRVTMTTDTSTSTAYMELRSLRSDDTAVYYCNANKELRYFDVWGQGTMVTVSSGGGGSGGGGSGGGGSEIVMTQSPATLSVSPGERATLSCRASQSISINLHWYQQKPGQAPRLLIYFASQSISGIPARFSGSGSGTEFTLTISSLQSEDFAVHYCQQSNSFPLTFGGGTKVEIKR |  |  | koff [3]: 0.00012 s⁻¹ |
| scFv AZ-D8 (scFv, scFv-80 variant: VH Y27C; not shown: proprietary C-terminal FLAG tag) scFv: QVQLVQSGAEVKKPGASVKVSCKASGCTFTDYYLHWVRQAPGQGLEWMGWIDPENGDTEYAPKFQGRVTMTTDTSTSTAYMELRSLRSDDTAVYYCNANKELRYFDVWGQGTMVTVSSGGGGSGGGGSGGGGSEIVMTQSPATLSVSPGERATLSCRASQSISINLHWYQQKPGQAPRLLIYFASQSISGIPARFSGSGSGTEFTLTISSLQSEDFAVYYCQQSNSFPLTFGGGTKVEIKR |  |  | koff [3]: 4.3e-05 s⁻¹ |
| scFv BV-B2 (scFv, scFv-80 variant: VL D82G; not shown: proprietary C-terminal FLAG tag) scFv: QVQLVQSGAEVKKPGASVKVSCKASGYTFTDYYLHWVRQAPGQGLEWMGWIDPENGDTEYAPKFQGRVTMTTDTSTSTAYMELRSLRSDDTAVYYCNANKELRYFDVWGQGTMVTVSSGGGGSGGGGSGGGGSEIVMTQSPATLSVSPGERATLSCRASQSISINLHWYQQKPGQAPRLLIYFASQSISGIPARFSGSGSGTEFTLTISSLQSEGFAVYYCQQSNSFPLTFGGGTKVEIKR |  |  | koff [3]: 0.00029 s⁻¹ |
| scFv combo. # 13 (scFv, scFv-80 with VH T28A, Q43R; VL I55T; not shown: proprietary C-terminal FLAG tag) scFv: QVQLVQSGAEVKKPGASVKVSCKASGYAFTDYYLHWVRQAPGRGLEWMGWIDPENGDTEYAPKFQGRVTMTTDTSTSTAYMELRSLRSDDTAVYYCNANKELRYFDVWGQGTMVTVSSGGGGSGGGGSGGGGSEIVMTQSPATLSVSPGERATLSCRASQSISINLHWYQQKPGQAPRLLIYFASQSTSGIPARFSGSGSGTEFTLTISSLQSEDFAVYYCQQSNSFPLTFGGGTKVEIKR |  |  | Kd [4]: 51 pM; koff [4]: 1.3e-05 s⁻¹; kon [4]: 250000 M⁻¹ s⁻¹ |
| scFv combo. # 14 (scFv, scFv-80 with VH F29L, Q43R; VL I55T; not shown: proprietary C-terminal FLAG tag) scFv: QVQLVQSGAEVKKPGASVKVSCKASGYTLTDYYLHWVRQAPGRGLEWMGWIDPENGDTEYAPKFQGRVTMTTDTSTSTAYMELRSLRSDDTAVYYCNANKELRYFDVWGQGTMVTVSSGGGGSGGGGSGGGGSEIVMTQSPATLSVSPGERATLSCRASQSISINLHWYQQKPGQAPRLLIYFASQSTSGIPARFSGSGSGTEFTLTISSLQSEDFAVYYCQQSNSFPLTFGGGTKVEIKR |  |  | Kd [4]: 79 pM; koff [4]: 2.1e-05 s⁻¹; kon [4]: 270000 M⁻¹ s⁻¹ |

From patent publication US20110262445A1 (CEPHALON AUSTRALIA, published 2011)
